In patent US20130224191A1, “NOTUM PROTEIN MODULATORS AND METHODS OF USE” (priority 2010, published 2013):
Where two headings read alike, the source gives them in different places.

Columns and labels:
[1] = system: luciferase transcription in the 293.TCF cells; test: Luciferase reporter activation in 293.TCF cells; format: cell-based, human; settings: 40 mM
Excerpt: To generate a stable population of cells that contain a reporter for the activation of canonical Wnt signaling, HEK 293T cells were transduced with a lentiviral vector, pGreenFirel-TCF (System Biosciences) which encodes a bifunctional GFP and luciferase reporter cassette under the control of a minimal CMV reporter linked to four tandem repeats of the transcriptional response elements for TCF. Transduced cells populations, termed 293.TCF cells, were subsequently used in a Wnt3A canonical signaling assay as follows: 2.5×10^4 293.TCF cells were plated per well of a 96-well tissue culture plate in 50 μL of serum-free DME medium. After 24 hours of serum starvation, 25 μL of various dilutions of conditioned medium (CM) from L/Wnt3A cells (ATCC CRL-2647; Willert, 2003) or undiluted CM from parental L-cells (ATCC CRL-2648) along with 25 μL of DMEM+0.2% FBS were added to each well. […] The contents of each well were then mixed thoroughly to lyse the cells, 100 μL of lysate transferred to black 96-well plates, and the luminescence in each well read after 5 mins using a Wallac Victor3 Multilabel Counter (Perkin-Elmer Corp). […] More particularly, as the Wnt3A+ CM media is diluted from 25% down to approximately 3%, activation of the Wnt pathway is reduced with a corresponding decrease in luminescence.

[2] = molecular target: Wnt3A (conditioned medium from L/Wnt3A cells, ATCC CRL-2647) (UniProt P27467); test: cell-based or functional assay; set-up: unit not given beside the values
Notum = molecular target: T1, Notum (Homo sapiens, UniProt Q6P988); test: 4-MUH assay, small molecule inhibition of Notum; format: biochemical; settings: 4-MUH 240 μM or 90 μM; orlistat 0-170 μM
T1 sequence (Q6P988 20-496): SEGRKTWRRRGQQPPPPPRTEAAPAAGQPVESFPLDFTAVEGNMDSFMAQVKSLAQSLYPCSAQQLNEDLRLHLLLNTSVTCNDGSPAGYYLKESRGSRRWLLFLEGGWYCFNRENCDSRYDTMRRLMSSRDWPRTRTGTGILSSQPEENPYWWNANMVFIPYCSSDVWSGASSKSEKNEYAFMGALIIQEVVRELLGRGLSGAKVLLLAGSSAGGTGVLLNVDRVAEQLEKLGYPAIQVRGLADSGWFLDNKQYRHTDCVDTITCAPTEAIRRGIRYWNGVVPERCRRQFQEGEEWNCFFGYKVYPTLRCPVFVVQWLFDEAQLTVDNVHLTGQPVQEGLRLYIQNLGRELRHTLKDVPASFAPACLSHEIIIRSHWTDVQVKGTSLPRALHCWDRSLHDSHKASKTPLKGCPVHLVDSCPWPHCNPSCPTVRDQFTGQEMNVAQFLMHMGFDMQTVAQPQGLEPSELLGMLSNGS
Procedure: (§1) In addition to the assays described in Examples 23 and 24, a fluorescent esterase substrate, 4-methylumbelliferyl heptanoate (Sigma), can be used to measure the activity of hydrolases using standard assay conditions (Richardson and Smith, 2007, PMID: 17620441; Jacks and Kircher, 1967, PMID: 5582971). Briefly, 4-MUH was dissolved in DMSO to a final concentration of 1.2 mM. This substrate was diluted 1:10 into assay buffer (0.1M Tris, pH 7.5, 50 mM NaCl, 0.05% Brij) and incubated with defined amounts of Notum enzyme or point-mutated Notum enzymes, and enzymatic release of the fluorescent molecule 4-methylumbelliferone monitored (355 nm excitation, 460 nm emission) using a Wallac Victor3 Multilabel Counter (Perkin Elmer).
Consistent with a putative hydrolase activity for Notum, it could be hypothesized that this inactivation is related to the ability of Notum to delipidate Wnt3A. Two lipids are known to be linked to Wnt3A, a saturated palmitate chain at Cys77 and an unsaturated palmitoleoylic chain at S209 (Lorenowicz and Korswagen, 2009, PMID: 19559695). […] Therefore, the 4-MUH assay described in example 25 was performed in the presence of varying amounts of 4-MUH substrate (240 μM or 90 μM) and orlistat (0-170 μM).

[3] = system: Wnt3A-mediated induction of luciferase in the 293.TCF cells; test: Wnt3A canonical signaling assay, bioactivity of Notum constructs; format: cell-based, human
Excerpt: To generate a stable population of cells that contain a reporter for the activation of canonical Wnt signaling, HEK 293T cells were transduced with a lentiviral vector, pGreenFirel-TCF (System Biosciences) which encodes a bifunctional GFP and luciferase reporter cassette under the control of a minimal CMV reporter linked to four tandem repeats of the transcriptional response elements for TCF. Transduced cells populations, termed 293.TCF cells, were subsequently used in a Wnt3A canonical signaling assay as follows: 2.5×10^4 293.TCF cells were plated per well of a 96-well tissue culture plate in 50 μL of serum-free DME medium. After 24 hours of serum starvation, 25 μL of various dilutions of conditioned medium (CM) from L/Wnt3A cells (ATCC CRL-2647; Willert, 2003) or undiluted CM from parental L-cells (ATCC CRL-2648) along with 25 μL of DMEM+0.2% FBS were added to each well. Eighteen hours after addition of CM, 100 μL of One-Glo solution (ProMega Corp.) was added to each well. The contents of each well were then mixed thoroughly to lyse the cells, 100 μL of lysate transferred to black 96-well plates, and the luminescence in each well read after 5 mins using a Wallac Victor3 Multilabel Counter (Perkin-Elmer Corp). […] More particularly, as the Wnt3A+ CM media is diluted from 25% down to approximately 3%, activation of the Wnt pathway is reduced with a corresponding decrease in luminescence.
Once the luciferase reporter system was established, assays for determining the bioactivity of various Notum modulators were performed as follows. 2.5×10^4 293.TCF cells were plated per well of a 96-well tissue culture plate in 50 μL of serum-free medium. After 23 hours of serum starvation, 25 μL of DMEM+0.2% FBS containing various Notum modulators at various concentrations (e.g., hNotum-His, hNotum-hFc, hNotum-S232A-His, murine Notum-His, murine Notum-hFc, macaque Notum-hFc, control protein-His or control protein-hFc obtained as per Examples 7, 8 and 13 above), were added to the cells. After 1 hour, 25 μL of Wnt3A or control L-cell CM were added to each well. Eighteen hours after addition of CM, 100 μL of One-Glo solution (ProMega Corp.) was added to each well, the contents of each well mixed thoroughly to lyse the cells, 100 μL of lysate transferred to black 96-well plates, and the luminescence read after 5 minutes.

[4] = system: mouse lineage-depleted NTX tumor cells from SCRx-CR42; test: Cell survival/proliferation, CellTiterGlo, SCRx-CR42; format: cell-based, human; settings: 10 μg/mL, 14 days
Procedure: (§2) To determine whether Notum protein impacts cell proliferation and/or apoptosis of human colorectal cancer cells, HCT-116 cells or mouse lineage-depleted NTX tumor cells (i.e. human tumor cells) were plated as described below and exposed to recombinant hNotum (e.g. hNotum-His or hNotum-hFc) and anti-Notum antibodies. Cell numbers were then assessed 12-14 days later.
(§3) Cells were then incubated for 14 days at 37° C., 5% CO2 and 5% O2 and the number of viable cells was assessed using Promega's CellTiterGlo assay kit per the manufacturer's instructions. For the HCT-116 cell line (a commercially available colorectal tumor cell line), cells were plated at 2,000 cells per well in DMEM+1% FBS, followed 24-hours later by the addition of serum free DMEM containing recombinant human Notum in the presence or absence of monoclonal antibodies SC2.D2.2 or SC2.10B3. HCT-116 cells were then incubated for 12 days at 37° C., 5% CO2 and cell viability was assessed with Promega's CellTiterGlo assay kit. Higher readings are indicative of higher viable cell counts.

[5] = system: mouse lineage-depleted NTX tumor cells from SCRx-CR4; test: Cell survival/proliferation, CellTiterGlo, SCRx-CR4; format: cell-based, human; settings: 1 or 10 μg/mL, 14 days
Procedure: as §2, §3

rhWnt3A = molecular target: T2, rhWnt3A (Homo sapiens, UniProt P56704); test: Triton X114 partition assay, delipidation of rhWnt3A by Notum; format: biochemical; settings: overnight incubation
T2 construct: purchased R & D Systems
Excerpt: If Notum directly acts upon Wnt3A to delipidate the protein, this cleavage should result in a change in the hydrophobicity of the protein, which can be measured by a change in its partitioning behavior between aqueous and detergent phases in a Triton X114 partition assay (Bordier, 1981, PMID: 6257680): lipidated Wnt3A will be found in the […], whereas delipidated Wnt3A should show up in the […] (Willert et al., 2003, PMID: 12717451). […] An equal volume of 4.5% Triton X114 was added to the mixture, the mixture incubated on ice for 5 minutes, then at 37° C. for five minutes, before separating the phases using centrifugation at 2000×g for five minutes at room temperature. Following separation each sample was adjusted to normalize the ionic strength and Triton X114 content before analyzing the aliquots by PAGE electrophoresis. After running the gel the protein bands were transferred to a membrane for immunoblotting using an anti-rhWnt3A antibody (Cell Signaling Technology). Bands were visualized using SuperSignal West Pico Chemiluminescent substrate (Thermo Fisher Scientific).

HCT-116 cells = test: Cell survival/proliferation, CellTiterGlo, HCT-116; format: cell-based, human; settings: 10 μg/mL, 12 days
Procedure: as §2, §3

[6] = Esterase activity of Notum proteins on chromogenic substrates; format: biochemical; settings: 1 hour at 37° C.
Procedure: Briefly, PNPA or PNPB were dissolved/diluted in isopropanol to final concentrations of 10 mM. These substrate solutions were diluted 1:10 into assay buffer (0.1% gum arabic, 2.3 mg/mL sodium dexoycholate, 1×PBS) and incubated with defined amounts of hNotum enzyme, and the enzymatic release of the chromophore p-nitrophenol monitored by absorbance measurements at 405 nm.

[7] = Lipase activity of hNotum, turbidometric Tween 20 lipolysis; format: biochemical
Procedure: Briefly, recombinant hNotum (1 μg/well) was added to an assay buffer containing 50 mM Tris, pH 7.4, 33.3 mM CaCl2, and 0.33% Tween-20. When the Tween 20 monolauryl group is cleaved by lipases (e.g. hNotum), the free fatty acid forms an insoluble complex with the Ca^2+ cations resulting in a turbid solution, the OD of which can be measured at 405 nm to provide a measure of lipase activity. As a positive control, the activity of porcine pancreatic lipase (Sigma Aldrich) was measured in the same assay.

[8] = 4-MUH fluorescent hydrolase assay, activity of Notum constructs; format: biochemical
Procedure: as §1

T2 sequence (P56704 19-352): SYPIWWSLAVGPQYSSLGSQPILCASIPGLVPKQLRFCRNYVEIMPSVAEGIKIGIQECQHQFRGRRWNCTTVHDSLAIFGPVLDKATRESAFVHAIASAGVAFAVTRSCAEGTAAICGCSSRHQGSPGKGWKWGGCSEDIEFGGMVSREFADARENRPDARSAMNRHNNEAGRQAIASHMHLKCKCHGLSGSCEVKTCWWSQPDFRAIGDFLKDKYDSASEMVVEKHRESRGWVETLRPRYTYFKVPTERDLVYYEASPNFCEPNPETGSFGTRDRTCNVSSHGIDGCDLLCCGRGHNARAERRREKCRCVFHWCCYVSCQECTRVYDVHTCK
Wnt3A (conditioned medium from L/Wnt3A cells, ATCC CRL-2647), sequence (P27467 19-352 limits assumed): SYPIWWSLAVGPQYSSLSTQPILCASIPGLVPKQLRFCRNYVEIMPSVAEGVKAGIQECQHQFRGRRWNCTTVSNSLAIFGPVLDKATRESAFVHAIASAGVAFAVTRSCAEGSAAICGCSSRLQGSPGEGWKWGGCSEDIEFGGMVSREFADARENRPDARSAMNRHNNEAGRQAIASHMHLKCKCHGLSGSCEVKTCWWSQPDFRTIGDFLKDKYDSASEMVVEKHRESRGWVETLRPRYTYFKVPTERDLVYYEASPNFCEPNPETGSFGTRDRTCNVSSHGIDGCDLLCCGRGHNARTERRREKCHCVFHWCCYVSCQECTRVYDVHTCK

## [Cl-].[Li+] [LiCl]
[1]
  activation of luciferase transcription: activate luciferase transcription

## hNotum-Fc (human Notum fused to human IgG2 Fc) (Fc fusion)
[2]
  IC50 of the decrease in luciferase activity (293.TCF Wnt3A assay): 0.47

## CCCCCCCCCCC[C@@H](C[C@@H]1OC(=O)[C@H]1CCCCCC)OC(=O)[C@H](CC(C)C)NC=O [orlistat]
Notum
  inhibition of hydrolysis activity of Notum upon 4MUH: inhibits the hydrolysis activity of Notum upon 4MUH in a dose-dependent fashion

B1: hNotum-His: recombinant His tagged human Notum protein (protein)
chain: T1 sequence (Q6P988 20-496)
modifications: left off: small tags and cut ends
notes: recombinant His tagged human Notum protein
[3]
  antagonism of Wnt3A-mediated induction of luciferase: functionally antagonize
[4]
  increase in cell counts: 20-45%

B2: hNotum-Fc: recombinant human Notum fused to human IgG2 Fc, SEQ ID NO: 333 (protein)
chain: MYRMQLLSCIALSLALVTNSSEGRKTWRRRGQQPPPPPRTEAAPAAGQPVESFPLDFTAVEGNMDSFMAQVKSLAQSLYPCSAQQLNEDLRLHLLLNTSVTCNDGSPAGYYLKESRGSRRWLLFLEGGWYCFNRENCDSRYDTMRRLMSSRDWPRTRTGTGILSSQPEENPYWWNANMVFIPYCSSDVWSGASSKSEKNEYAFMGALIIQEVVRELLGRGLSGAKVLLLAGSSAGGTGVLLNVDRVAEQLEKLGYPAIQVRGLADSGWFLDNKQYRHTDCVDTITCAPTEAIRRGIRYWNGVVPERCRRQFQEGEEWNCFFGYKVYPTLRCPVFVVQWLFDEAQLTVDNVHLTGQPVQEGLRLYIQNLGRELRHTLKDVPASFAPACLSHEIIIRSHWTDVQVKGTSLPRALHCWDRSLHDSHKASKTPLKGCPVHLVDSCPWPHCNPSCPTVRDQFTGQEMNVAQFLMHMGFDMQTVAQPQGLEPSELLGMLSNGSISAMVRSVECPPCPAPPVAGPSVFLFPPKPKDTLMISRTPEVTCVVVDVSHEDPEVQFNWYVDGVEVHNAKTKPREEQFNSTFRVVSVLTVVHQDWLNGKEYKCKVSNKGLPAPIEKTISKTKGQPREPQVYTLPPSREEMTKNQVSLTCLVKGFYPSDIAVEWESNGQPENNYKTTPPMLDSDGSFFLYSKLTVDKSRWQQGNVFSCSVMHEALHNHYTQKSLSLSPGK
[3]
  antagonism of Wnt3A-mediated induction of luciferase: functionally antagonize
[5]
  increase in cell counts: 20-45%
rhWnt3A
  redistribution of rhWnt3A between Triton X114 and aqueous phase: leads to a redistribution of the rhWnt3A into the aqueous phase

B3: hNotum: recombinant human Notum protein (e.g. hNotum-His or hNotum-hFc) (protein)
chain: T1 sequence (Q6P988 20-496)
[3]
  antagonism of Wnt3A-mediated induction of luciferase: antagonizes Wnt3A CM
[3]; listed as wild-type human Notum
  antagonism of Wnt3A-mediated induction of luciferase: can inhibit the response of the 293.TCF cells to Wnt3A in a dose-dependent fashion
HCT-116 cells
  increase in cell numbers: more than 2 fold
[6]
  esterase activity: has carboxyesterase activity
[7]
  lipase activity: capable of cleaving Tween 20 in a dose dependent fashion
[8]
  hydrolysis of the 4-MUH substrate: capable of hydrolyzing the 4-MUH substrate
